We go through one compound from article PMC11279866, “Synthesis, Radiolabeling, and Biodistribution Study of a Novel DOTA-Peptide for Targeting Vascular Endothelial Growth Factor Receptors in the Molecular Imaging of Breast Cancer” (Pharmaceutics, 2024).

Like-named read-outs stand apart in the source and are kept apart here. Where a SMILES comes first, the peptide text is derived from it. Bridges are numbered along the chain shown (N, C = ends). The star is where a group is joined. DOTA = O=C(O)CN1CCN(CC(=O)O)CCN(CC(=O)*)CCN(CC(=O)O)CC1; Ahx = NCCCCCC(=O)O

Data set [1] in a line: n-octanol/water partition coefficient (log p). In kind it is physicochemical. To be noted: shake-flask n-octanol/water; 100 μL radiopeptide in 0.99 mL water + 1 mL n-octanol; vortex 5 min, room temperature; centrifugation 10 min 5000 rpm; radioactivity read-out; mean ± SD (n = 3). The method, then: A total of 100 μL of the radiolabeled peptide was aliquoted into vials containing 0.99 mL of water and 1 mL of n-octanol, which was then mixed by a vortex mixer (Mabnagene, Tehran, Iran) at room temperature for 5 min. Aqueous and organic layers were separated by centrifugation (10 min, 5000 rpm). Then, 500 μL aliquots of each layer were transferred to the new vials, and the radioactivity of both was measured in a dose calibrator (Capintec CRC®-25, Florham Park, NJ, USA).
The lipid–water partition coefficient for the [^68Ga]Ga-DOTA-Ahx-peptide was estimated in the n-octanol water system, using a […]. Approximately, the log p value was −2.17 ± 0.072, considering the below formula (Equation (2)). The result is reported as mean ± SD (n = 3). […] (2) […]

Another data set relates to 4T1 cells. Type of data set: binding, mouse BALB/c. The protocol: (§1) The 4T1 cell line was acquired from the Pasteur Institute of Iran (4T1 is a breast cancer cell line derived from the mammary gland tissue of a mouse BALB/c. (NCBICode: C604/the Pasteur Institute/Tehran/Iran). 4T1 cells are epithelial and can overexpress VEGFRs). The cells were cultured at 37 °C with 5% CO2 in Dulbecco’s modified Eagle’s medium (Gibco, Life Technologies, Carlsbad, CA, USA) supplemented with 10% fetal bovine serum (Gibco) and 1% antibiotics (penicillin and streptomycin). To develop tumor-bearing mice models, Balb/C mice (female, 6–8-week-old, 20–25 g) were purchased from the Institute of Biochemistry and Biophysics (IBB) (University of Tehran, Iran) and kept under the controlled conditions of temperature, humidity, and light/dark cycles with appropriate food and water (approved by the ethics committee of TUMS). Initially, the cells were harvested from the culture flask surface by 10 mM EDTA and centrifuged. After resuspending in serum-free culture medium, 1 × 10^6 cells/100 μL were injected subcutaneously into the right shoulder of mice. In the next 10 days, the tumor size was ready to use for imaging and biodistribution studies with a volume of […] [54].
A competitive binding assay was conducted to determine the value of 50% inhibitory concentration (IC50) for the [^68Ga]Ga-DOTA-Ahx-peptide, using the non-radiolabeled peptide as a competitor. […]

Data set [2] in a line: Ex vivo biodistribution in normal BALB/c mice. As to conditions: mouse, total radioactivity, mean ± SD (n = 3); for tissue uptake / tissue uptake at 0.5 h: iv, 840 kBq; for tissue uptake: healthy tissues, time point not stated; for tissue uptake at 0.5 h: normal mice. The method, then: (§2) The biodistribution of [^68Ga]Ga-DOTA-Ahx-peptide was evaluated in normal and tumor-bearing BALB/c mice. Therefore, 840 kBq in 100 μL saline was injected via the caudal vein of the mice. The animal was euthanized at different time points of 15, 30, 60, and 90 min post-injection using ketamine and xylazine in lethal doses. First, the blood sample was taken from the heart, and then organs (heart, kidney, liver, lungs, etc.) were removed. Tissues were rinsed and weighed, and the radioactivity of each organ was measured using a gamma counter. The organ uptake can be reported as the percentage of injected dose per gram of tissue (ID%/g). A 500-fold excess of DOTA-Ahx-ECRPPDDGLC was used 30 min before radiolabeled peptide injection for the blocking experiment.
Comparative biodistribution studies were conducted in healthy (Figure 7a) and subcutaneously (s.c) tumor-bearing mice (Figure 7b). […] Relatively high uptake was also observed in healthy tissues such as the spleen and intestine (3.7 ± 0.29%ID/g and 5.07 ± 0.21%ID/g, respectively). At 30 min, the highest accumulation of the radioactive compound was measured in the kidneys, which was 9.2 ± 0.53%ID/g and increased over time up to 90 min. Considering kidney uptake, this tracer is excreted mainly from this organ. The distribution profile of the [^68Ga]Ga-DOTA-Ahx-peptide in tumor-bearing mice had some similarity to the normal mice. Kidneys in tumor-bearing mice were also the critical organ with the highest radioactivity concentration at different time points (5.62 ± 0.31%ID/g at 30 min and 6.35 ± 0.54%ID/g at 90 min). This increasing profile has confirmed the quick washing-out of important organs such as the heart, lungs, liver, stomach, and intestine, which had relatively high radioactivity uptake. […] The maximum tumor uptake was 30 min after injection (1.51 ± 0.22%ID/g) and decreased by 90 min.
Figure 7 The biodistribution of the [^68Ga]Ga-DOTA-Ahx-peptide in (a) normal and (b) tumor-bearing BALB/c mice. The data are described as %ID/g, calculated at 30, 60, and 90 min after injection. The results are reported as mean ± SD (n = 3). (c) Tumor-to-organ ratio at 30, 60, and 90 min after IV injection. The uptake profile of (d) blood, (e) muscle, (f) liver, and (g) kidneys in comparison with the tumor from 15 to 90 min.

Data set [3] can be described thus: Ex vivo biodistribution in 4T1 tumor-bearing BALB/c mice, with blocking experiment. As to conditions: female, mouse, total radioactivity, mean ± SD (n = 3); for tissue uptake at 0.5 h: 30 min p.i.; for tissue uptake at 1.5 h: 90 min p.i. The method, then: as §1, §2
Comparative biodistribution studies were conducted in healthy (Figure 7a) and subcutaneously (s.c) tumor-bearing mice (Figure 7b). […] At 30 min, the highest accumulation of the radioactive compound was measured in the kidneys, which was 9.2 ± 0.53%ID/g and increased over time up to 90 min. […] Kidneys in tumor-bearing mice were also the critical organ with the highest radioactivity concentration at different time points (5.62 ± 0.31%ID/g at 30 min and 6.35 ± 0.54%ID/g at 90 min). This increasing profile has confirmed the quick washing-out of important organs such as the heart, lungs, liver, stomach, and intestine, which had relatively high radioactivity uptake. […]
Figure 7 The biodistribution of the [^68Ga]Ga-DOTA-Ahx-peptide in (a) normal and (b) tumor-bearing BALB/c mice. The data are described as %ID/g, calculated at 30, 60, and 90 min after injection. […]

Where [4] appears, read: blood, IV 840 kBq, read-out: blood uptake.
Setting [5] is: kidney, iv, 840 kBq, read-out: kidney uptake.

A word on the IC50: it is the midpoint of a concentration-inhibition curve. For the compound `CC(C)C[C@@H]1NC(=O)CNC(=O)[C@H](CC(=O)O)NC(=O)[C@H](CC(=O)O)NC(=O)[C@@H]2CCCN2C(=O)[C@@H]2CCCN2C(=O)[C@H](CCCNC(=N)N)NC(=O)[C@@H](NC(=O)[C@H](CCC(=O)O)NC(=O)CCCCCNC(=O)CN2CCN(CC(=O)O)CCN(CC(=O)O)CCN(CC(=O)O)CC2)CSSC[C@@H](C(=O)O)NC1=O` [[^68Ga]Ga-DOTA-Ahx-VGB3, metal not drawn] ({DOTA-Ahx}-ECRPPDDGLC-OH; disulfide 2-10), the “log p (n-octanol/water partition coefficient)” value in data set [1] is on record as about −2.17 ± 0.072. The compound further had a concentration for half-maximal inhibition (IC50) in the data set with 4T1 cells of about 867 nM. In addition, the tissue uptake at 1.5 h in data set [2] (blood, healthy mice, 90 min p.i., IV 840 kBq) stood at 0.32 ± 0.036 %ID/g; in data set [3] (setting [4]), 0.22 ± 0.06 %ID/g; in data set [3] (setting [5]) it was 6.35 ± 0.54 %ID/g. Also, the tissue uptake in data set [2] (intestine, read-out: intestine uptake) stood at 5.07 ± 0.21 %ID/g; in data set [2] (spleen, read-out: spleen uptake), 3.7 ± 0.29 %ID/g. Besides, the tissue uptake at 0.5 h in data set [2] (kidney, 30 min p.i., read-out: kidney uptake) was found to be 9.2 ± 0.53 %ID/g; in data set [2] (liver, 30 p.i., read-out: liver uptake (maximum)), 4.41 ± 0.56 %ID/g; in data set [3] (setting [4]) it was 1.4 ± 0.18 %ID/g; in data set [3] (setting [5]), 5.62 ± 0.31 %ID/g.
